Experimental data reported in article PMC9663165, “Human immunomodulatory ligand B7-1 mediates synaptic remodeling via the p75 neurotrophin receptor” (The Journal of Clinical Investigation, 2022).
Positions count from the first letter of the chain named. Names and notes keep the numbering of the source. Blank lines part the entries; values can stand above or below the binder they belong to.

Key:
[1] = molecular target: T1, human p75 neurotrophin receptor-GFP (human, UniProt P08138 29-427); assay: flow cytometry on cells; recombinant B7-1-Fc or B7-1N82E-Fc titrated (up to 1.2 uM) onto cells expressing CTLA-4, CD28 or p75NTR; detected with an anti-mouse 647 labelled antibody; EC50 calculated; details: one partner purified
T1 construct: also called p75NTR; NGFR; source: HEK293F, transiently transfected, on cells; not shown: GFP, C-terminal, kept
T1 sequence (looked up): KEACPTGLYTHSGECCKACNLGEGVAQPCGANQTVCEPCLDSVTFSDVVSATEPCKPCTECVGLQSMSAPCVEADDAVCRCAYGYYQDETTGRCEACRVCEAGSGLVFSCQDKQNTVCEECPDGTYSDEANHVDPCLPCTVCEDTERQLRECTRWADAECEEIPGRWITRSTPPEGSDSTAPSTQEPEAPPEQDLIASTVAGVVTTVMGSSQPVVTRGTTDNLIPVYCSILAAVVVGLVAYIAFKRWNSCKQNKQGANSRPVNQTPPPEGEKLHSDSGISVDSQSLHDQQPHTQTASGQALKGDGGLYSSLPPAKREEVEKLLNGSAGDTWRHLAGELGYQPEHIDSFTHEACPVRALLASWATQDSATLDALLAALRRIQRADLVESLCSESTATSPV

[2] = molecular target: T2, CTLA-4 on cells (Figure S6) ( (human or mouse cDNA cloned), UniProt P16410 36-223); assay: as above; details: one partner purified
T2 construct: CTLA-4; Probably a C-terminal GFP fusion in HEK293F cells as in the other experiments; also called CTLA-4 Expressing Cells; CTLA-4 cells
T2 sequence (P16410 36-223): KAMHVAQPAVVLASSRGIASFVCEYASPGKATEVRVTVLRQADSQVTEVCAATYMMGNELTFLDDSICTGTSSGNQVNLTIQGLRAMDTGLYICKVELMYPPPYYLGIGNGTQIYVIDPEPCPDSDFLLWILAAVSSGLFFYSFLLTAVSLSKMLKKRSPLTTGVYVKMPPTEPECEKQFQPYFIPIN

[3] = molecular target: T3, CD28 on cells (Figure S6) ( (human or mouse cDNA cloned), UniProt P10747 19-220); assay: as above; details: one partner purified
T3 construct: CD28; Probably a C-terminal GFP fusion in HEK293F cells as in the other experiments; also called CD28 Expressing Cells; CD28 cells

B7-1–hIgG1 biotin = molecular target: T4, B7-1–hIgG1 biotin (human, UniProt P33681 35-233, biotin on the AVI tag); assay: flow cytometry on protein-coated beads; p75NTR-mIgG2a or CTLA-4–mIgG2a titrated (0 to 100 nM, 30 min) onto streptavidin beads coated with B7-1–hIgG1 biotin; detected with anti-mIgG2a; PBS 0.2% BSA pH 7.4; Hill fit; dimeric fusion proteins; details: both partners purified
T4 construct: human B7-1 (CD80) ectodomain, residues 35-233; also called recombinant biotinylated B7-1–Fc protein; B7-1–Fc biotin; source: Expi293 cells stably expressing BirA, transiently transfected, purified; not shown: Fc (human IgG1), C-terminal, kept; AVI tag, C-terminal, kept
T4 sequence (looked up): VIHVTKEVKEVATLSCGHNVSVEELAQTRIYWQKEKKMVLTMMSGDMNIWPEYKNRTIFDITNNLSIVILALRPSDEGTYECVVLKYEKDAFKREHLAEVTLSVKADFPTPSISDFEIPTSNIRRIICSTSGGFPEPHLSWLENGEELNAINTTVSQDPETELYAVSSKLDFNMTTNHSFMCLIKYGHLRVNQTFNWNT

EC50 [1]: 285 nM
EC50 [2]: 0.69 nM
EC50 [3]: 9.7 nM
B1: hB7-1-mIgG2A (Fc fusion, human, UniProt P33681 35-233, looked up)
chain: T4 sequence (looked up)
notes: B7-1 (CD80), human, ectodomain residues 35-233; also called B7-1-Fc; WT B7-1-Fc; source: Expi293, transiently expressed, purified (Ni2+ His60 resin, S200 gel filtration); not shown: Fc (mouse IgG2a), C-terminal, kept

EC50 [2]: 9.2 nM
EC50 [3]: 10.3 nM
B2: hB7-1N82E-mIgG2A (Fc fusion, human, UniProt P33681 35-233, looked up)
chain: T4 sequence (looked up) with N48E
notes: B7-1 (CD80), human, ectodomain residues 35-233 with N82E; also called B7-1N82E-Fc; source: Expi293, transiently expressed, purified (Ni2+ His60 resin, S200 gel filtration); not shown: Fc (mouse IgG2a), C-terminal, kept

EC50 (B7-1–hIgG1 biotin): 16 nM
B3: p75^NTR-mIgG2A (Fc fusion, UniProt P08138 29-250, looked up)
chain: KEACPTGLYTHSGECCKACNLGEGVAQPCGANQTVCEPCLDSVTFSDVVSATEPCKPCTECVGLQSMSAPCVEADDAVCRCAYGYYQDETTGRCEACRVCEAGSGLVFSCQDKQNTVCEECPDGTYSDEANHVDPCLPCTVCEDTERQLRECTRWADAECEEIPGRWITRSTPPEGSDSTAPSTQEPEAPPEQDLIASTVAGVVTTVMGSSQPVVTRGTTDN
notes: p75NTR (NGFR) full-length ectodomain; also called p75^NTR-Fc; source: Expi293 suspension cells, transiently transfected, purified; not shown: Fc (mouse IgG2a), C-terminal, kept
